Assay results reported in patent US20120316118A1 (OSSTEMIMPLANT, published 2012).

Columns and labels:
[1] = target: T1, BMPR-IA (BMP receptor type IA) (UniProt P36894 24-152, limits assumed); test: ELISA: peptide coated on plate, BMPR-1A added, detected with anti-receptor antibody and HRP secondary, ABTS, absorbance at 595 nm
T1 construct: Soluble receptor added to the PEP7-coated plate; also called BMPR-1A; BMP-specific receptor
Method: (§1) PEP7 ([…]) was added to an ELISA plate and incubated at 4° C. for 12 hours. After PEP7 was coated on the plate, BMPR-1A or BMPR-II ([…]) was added thereto and reacted at room temperature for 2 hours, to obtain a PEP7-BMP receptor complex. A primary antibody specific for a BMP receptor (0.5 mg BMPR-1A, BMPR-11) was added to the complex and reacted at room temperature for 1 hour. A secondary antibody (BMPR-1A- or BMPRII-Fc Ab-HRP) was then added to the resulting mixture and reacted at room temperature for 1 hour.

[2] = target: T2, BMPR-II (BMP receptor type II) (UniProt Q13873 27-151, limits assumed); test: ELISA: peptide coated on plate, BMPR-II added, detected with anti-receptor antibody and HRP secondary, ABTS, absorbance at 595 nm
T2 construct: Soluble receptor added to the PEP7-coated plate; also called BMPR-11; BMP-II
T2 sequence (looked up): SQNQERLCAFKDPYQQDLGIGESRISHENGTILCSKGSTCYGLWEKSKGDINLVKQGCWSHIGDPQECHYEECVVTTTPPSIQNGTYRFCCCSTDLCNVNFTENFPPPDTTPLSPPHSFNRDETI
Method: as §1

T1 sequence (P36894 24-152 limits assumed): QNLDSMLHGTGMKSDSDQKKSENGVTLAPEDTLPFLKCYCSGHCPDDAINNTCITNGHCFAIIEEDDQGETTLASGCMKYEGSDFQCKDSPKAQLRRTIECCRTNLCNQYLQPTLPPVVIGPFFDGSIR

B1: PEP7 oligopeptide (SEQ ID NO:1) (peptide)
peptide: KIPKPSSVPTELSAISMLYL
notes: Synthetic peptide made by the Fmoc/tBu method, coated on the ELISA plate
For B1, the “binding affinity relative to PEP 111 (ELISA absorbance)” value [1] was ~23 % higher than PEP 111 and the “binding affinity relative to PEP 111 (ELISA absorbance)” value [2] was ~23 % higher than PEP 111.
